Source: publication PMC9482650, “Quantitative fragmentomics allow affinity mapping of interactomes” (Nature Communications, 2022)

T1: RAPGEF6, Q8TEU7
T1 sequence (Q8TEU7 525-625, limits assumed, looked up): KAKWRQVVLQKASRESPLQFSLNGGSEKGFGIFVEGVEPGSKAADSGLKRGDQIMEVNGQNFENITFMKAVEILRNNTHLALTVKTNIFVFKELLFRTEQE

T2: SNTG2, Q9NY99
T2 sequence (Q9NY99 68-166, limits assumed, looked up): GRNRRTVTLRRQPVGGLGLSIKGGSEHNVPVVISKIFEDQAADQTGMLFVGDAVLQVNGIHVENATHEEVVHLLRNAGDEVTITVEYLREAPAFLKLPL

T3: PCLO, Q9Y6V0
T3 sequence (Q9Y6V0 4491-4600, limits assumed, looked up): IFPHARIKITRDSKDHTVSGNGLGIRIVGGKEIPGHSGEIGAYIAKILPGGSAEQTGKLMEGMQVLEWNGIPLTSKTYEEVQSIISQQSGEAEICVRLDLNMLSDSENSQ

T4: LIN7A, O14910
T4 sequence (O14910 103-200, limits assumed, looked up): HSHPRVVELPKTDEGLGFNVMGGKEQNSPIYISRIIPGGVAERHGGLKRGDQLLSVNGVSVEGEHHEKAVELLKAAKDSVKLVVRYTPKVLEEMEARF

T5: TX1BP3, O14907
T5 sequence (O14907 10-122, limits assumed, looked up): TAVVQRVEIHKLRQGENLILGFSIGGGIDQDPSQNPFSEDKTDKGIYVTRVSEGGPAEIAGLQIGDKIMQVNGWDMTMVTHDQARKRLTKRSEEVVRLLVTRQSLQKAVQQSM

T6: APBA2_1, Q99767
T6 sequence (Q99767 563-664, limits assumed, looked up): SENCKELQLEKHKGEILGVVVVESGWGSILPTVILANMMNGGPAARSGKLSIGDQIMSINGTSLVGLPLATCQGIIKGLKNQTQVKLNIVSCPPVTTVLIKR

T7: APBA2_2, Q99767
T7 sequence (Q99767 654-744, limits assumed, looked up): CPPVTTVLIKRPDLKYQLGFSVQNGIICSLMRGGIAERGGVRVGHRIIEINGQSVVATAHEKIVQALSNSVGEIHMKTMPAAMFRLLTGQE

T8: APBA1_1, Q02410
T8 sequence (Q02410 651-752, limits assumed, looked up): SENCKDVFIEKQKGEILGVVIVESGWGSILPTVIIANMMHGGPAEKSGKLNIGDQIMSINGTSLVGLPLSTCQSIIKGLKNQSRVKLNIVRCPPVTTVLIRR

T9: DLG3_2, Q92796
T9 sequence (Q92796 221-321, limits assumed, looked up): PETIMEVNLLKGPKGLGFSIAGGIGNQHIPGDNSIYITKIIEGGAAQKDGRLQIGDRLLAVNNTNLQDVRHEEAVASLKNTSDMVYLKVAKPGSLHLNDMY

T10: PARD3B_1, Q8TEW8
T10 sequence (Q8TEW8 196-299, limits assumed, looked up): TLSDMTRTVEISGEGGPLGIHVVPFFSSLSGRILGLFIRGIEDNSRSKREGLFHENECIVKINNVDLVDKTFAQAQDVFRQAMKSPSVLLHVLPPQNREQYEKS

T11: DLG3_1, Q92796
T11 sequence (Q92796 125-227, limits assumed, looked up): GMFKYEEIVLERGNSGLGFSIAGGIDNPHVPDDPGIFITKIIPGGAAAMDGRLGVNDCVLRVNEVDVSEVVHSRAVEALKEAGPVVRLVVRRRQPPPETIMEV

T12: LIN7C, Q9NUP9
T12 sequence (Q9NUP9 88-185, limits assumed, looked up): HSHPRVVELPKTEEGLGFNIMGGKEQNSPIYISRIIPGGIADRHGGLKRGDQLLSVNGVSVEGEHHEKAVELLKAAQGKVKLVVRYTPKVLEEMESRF


How the values were obtained:
Assay in all cases: holdup assay
Design in all cases: key: below the threshold = too weak to quantify, mostly under pKd 3.1 to 4
Settings in all cases: plain residues with an end cap or a label only (N-terminal biotin on a linker: ado-ado)
LNX1_1, Q8TBB1 = biological target: LNX1_1, Q8TBB1
LNX1_1, Q8TBB1, sequence (Q8TBB1 261-371): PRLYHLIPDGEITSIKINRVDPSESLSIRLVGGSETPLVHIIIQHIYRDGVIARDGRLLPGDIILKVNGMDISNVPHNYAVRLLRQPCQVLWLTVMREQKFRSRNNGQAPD

FRMPD3, Q5JV73 = biological target: FRMPD3, Q5JV73
FRMPD3, Q5JV73, sequence (Q5JV73 12-100): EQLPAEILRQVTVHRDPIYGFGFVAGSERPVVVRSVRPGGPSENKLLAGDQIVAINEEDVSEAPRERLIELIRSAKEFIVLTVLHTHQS

LIMK2, P53671 = biological target: LIMK2, P53671
LIMK2, P53671, sequence (P53671 143-248): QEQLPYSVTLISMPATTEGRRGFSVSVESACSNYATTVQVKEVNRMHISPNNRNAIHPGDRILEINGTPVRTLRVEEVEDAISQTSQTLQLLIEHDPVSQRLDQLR

RAPGEF6, Q8TEU7 = biological target: T1, RAPGEF6, Q8TEU7
SNTG2, Q9NY99 = biological target: T2, SNTG2, Q9NY99
Inadl_10, Q8NI35 = biological target: Inadl_10, Q8NI35
Inadl_10, Q8NI35, sequence (Q8NI35 1673-1763): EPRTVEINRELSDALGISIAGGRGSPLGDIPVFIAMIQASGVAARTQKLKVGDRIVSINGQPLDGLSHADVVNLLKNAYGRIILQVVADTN

PCLO, Q9Y6V0 = biological target: T3, PCLO, Q9Y6V0
LIN7A, O14910 = biological target: T4, LIN7A, O14910
HTRA2, O43464 = biological target: HTRA2, O43464
HTRA2, O43464, sequence (O43464 355-458): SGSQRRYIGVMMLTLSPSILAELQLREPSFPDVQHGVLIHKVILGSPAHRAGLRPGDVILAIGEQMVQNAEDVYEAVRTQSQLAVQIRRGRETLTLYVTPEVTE

TX1BP3, O14907 = biological target: T5, TX1BP3, O14907
GRASP, Q7Z6J2 = biological target: GRASP, Q7Z6J2
GRASP, Q7Z6J2, sequence (Q7Z6J2 96-193): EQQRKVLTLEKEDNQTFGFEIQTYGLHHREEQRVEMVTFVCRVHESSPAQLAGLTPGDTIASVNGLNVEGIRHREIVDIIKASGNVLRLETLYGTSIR

ARHGEF12, Q9NZN5-2 = biological target: ARHGEF12, Q9NZN5-2
ARHGEF12, Q9NZN5-2, sequence (Q9NZN5 other isoform, or with tags, fused parts or gaps): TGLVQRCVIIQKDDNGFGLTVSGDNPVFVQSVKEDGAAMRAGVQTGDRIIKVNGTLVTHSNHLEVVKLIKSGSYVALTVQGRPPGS

APBA2_1, Q99767 = biological target: T6, APBA2_1, Q99767
GRIP2_7, Q9C0E4 = biological target: GRIP2_7, Q9C0E4
GRIP2_7, Q9C0E4, sequence (Q9C0E4 934-1023): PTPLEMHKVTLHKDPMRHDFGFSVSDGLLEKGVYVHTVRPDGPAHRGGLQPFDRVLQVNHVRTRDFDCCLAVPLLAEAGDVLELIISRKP

APBA2_2, Q99767 = biological target: T7, APBA2_2, Q99767
APBA1_1, Q02410 = biological target: T8, APBA1_1, Q02410
Inadl_9, Q8NI35 = biological target: Inadl_9, Q8NI35
Inadl_9, Q8NI35, sequence (Q8NI35 1530-1615): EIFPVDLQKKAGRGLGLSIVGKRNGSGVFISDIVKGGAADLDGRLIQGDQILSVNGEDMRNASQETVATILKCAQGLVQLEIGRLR

DLG3_2, Q92796 = biological target: T9, DLG3_2, Q92796
PARD3B_1, Q8TEW8 = biological target: T10, PARD3B_1, Q8TEW8
MAGI2_6, Q86UL8 = biological target: MAGI2_6, Q86UL8
MAGI2_6, Q86UL8, sequence (Q86UL8 1141-1229): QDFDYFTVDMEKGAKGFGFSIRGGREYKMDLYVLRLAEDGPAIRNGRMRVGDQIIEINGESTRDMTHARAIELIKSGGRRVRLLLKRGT

DLG3_1, Q92796 = biological target: T11, DLG3_1, Q92796
MAGI3_2, Q5TCQ9 = biological target: MAGI3_2, Q5TCQ9
MAGI3_2, Q5TCQ9, sequence (Q5TCQ9 398-503): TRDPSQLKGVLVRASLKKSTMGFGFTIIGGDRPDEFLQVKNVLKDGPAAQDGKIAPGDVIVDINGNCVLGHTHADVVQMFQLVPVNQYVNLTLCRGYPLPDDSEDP

LNX1_2, Q8TBB1 = biological target: LNX1_2, Q8TBB1
LNX1_2, Q8TBB1, sequence (Q8TBB1 371-470): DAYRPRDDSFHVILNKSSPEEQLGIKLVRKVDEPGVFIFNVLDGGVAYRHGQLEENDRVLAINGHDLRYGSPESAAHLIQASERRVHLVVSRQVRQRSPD

LIN7C, Q9NUP9 = biological target: T12, LIN7C, Q9NUP9
DLG1_3, Q12959 = biological target: DLG1_3, Q12959
DLG1_3, Q12959, sequence (Q12959 457-571): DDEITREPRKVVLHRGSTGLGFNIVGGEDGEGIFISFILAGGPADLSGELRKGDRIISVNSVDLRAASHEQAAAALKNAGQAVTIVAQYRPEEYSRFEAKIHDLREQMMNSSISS

Binder | pKd (LNX1_1, Q8TBB1) | pKd (FRMPD3, Q5JV73) | pKd (LIMK2, P53671) | pKd (RAPGEF6, Q8TEU7) | pKd (SNTG2, Q9NY99) | pKd (Inadl_10, Q8NI35) | pKd (PCLO, Q9Y6V0) | pKd (LIN7A, O14910) | pKd (HTRA2, O43464) | pKd (TX1BP3, O14907) | pKd (GRASP, Q7Z6J2) | pKd (ARHGEF12, Q9NZN5-2) | pKd (APBA2_1, Q99767) | pKd (GRIP2_7, Q9C0E4) | pKd (APBA2_2, Q99767) | pKd (APBA1_1, Q02410) | pKd (Inadl_9, Q8NI35) | pKd (DLG3_2, Q92796) | pKd (PARD3B_1, Q8TEW8) | pKd (MAGI2_6, Q86UL8) | other results
RSPVATATSC [DUSP5, Q16690] | below the threshold | below the threshold | below the threshold | below the threshold | below the threshold | below the threshold | below the threshold | below the threshold | below the threshold | below the threshold | below the threshold | 4.26 | below the threshold | below the threshold | below the threshold | below the threshold | below the threshold | 4.18 | below the threshold | below the threshold | pKd (DLG3_1, Q92796): below the threshold; pKd (MAGI3_2, Q5TCQ9): below the threshold; pKd (LNX1_2, Q8TBB1): below the threshold; pKd (LIN7C, Q9NUP9): below the threshold; pKd (DLG1_3, Q12959): below the threshold
MLPANYVEAI [NEB, P20929] | below the threshold | below the threshold | below the threshold | below the threshold | below the threshold | below the threshold | below the threshold | below the threshold | below the threshold | below the threshold | below the threshold | below the threshold | below the threshold | below the threshold | below the threshold | below the threshold | below the threshold | 4.11 | below the threshold | below the threshold | pKd (DLG3_1, Q92796): below the threshold; pKd (MAGI3_2, Q5TCQ9): below the threshold; pKd (LNX1_2, Q8TBB1): below the threshold; pKd (LIN7C, Q9NUP9): below the threshold; pKd (DLG1_3, Q12959): below the threshold
LVEEEEPMNL [HDAC7, Q8WUI4] | below the threshold | below the threshold | below the threshold | below the threshold | below the threshold | below the threshold | below the threshold | below the threshold | below the threshold | 4.01 | below the threshold | below the threshold | below the threshold | below the threshold | below the threshold | below the threshold | below the threshold | below the threshold | below the threshold | below the threshold | pKd (DLG3_1, Q92796): below the threshold; pKd (MAGI3_2, Q5TCQ9): below the threshold; pKd (LNX1_2, Q8TBB1): below the threshold; pKd (LIN7C, Q9NUP9): 4.12; pKd (DLG1_3, Q12959): below the threshold
TKDKVQETQI [LRRC4, Q9HBW1] | 3.99 | below the threshold | below the threshold | below the threshold | 5.1 | below the threshold | below the threshold | 3.51 | below the threshold | 4.28 | below the threshold | 4.57 | below the threshold | below the threshold | below the threshold | below the threshold | below the threshold | 4.57 | 3.76 | 3.97 | pKd (DLG3_1, Q92796): 3.81; pKd (MAGI3_2, Q5TCQ9): 4.87; pKd (LNX1_2, Q8TBB1): below the threshold; pKd (LIN7C, Q9NUP9): 3.98; pKd (DLG1_3, Q12959): 4.18
ADEMICITTL [CACNA1D, Q01668] | 4.48 | below the threshold | below the threshold | 3.65 | 4.47 | 4.42 | below the threshold | below the threshold | 3.83 | 3.87 | 5.41 | 6.18 | below the threshold | 3.62 | below the threshold | below the threshold | below the threshold | 4.46 | 4.84 | 4.85 | pKd (DLG3_1, Q92796): 3.56; pKd (MAGI3_2, Q5TCQ9): below the threshold; pKd (LNX1_2, Q8TBB1): below the threshold; pKd (LIN7C, Q9NUP9): below the threshold; pKd (DLG1_3, Q12959): 3.78
NISARRFTLC [FAM167B, Q9BTA0] | 3.85 | below the threshold | below the threshold | below the threshold | below the threshold | below the threshold | below the threshold | below the threshold | 4.44 | below the threshold | 4.36 | 4.13 | below the threshold | 3.81 | below the threshold | below the threshold | below the threshold | 4.42 | below the threshold | below the threshold | pKd (DLG3_1, Q92796): 3.98; pKd (MAGI3_2, Q5TCQ9): 4.67; pKd (LNX1_2, Q8TBB1): 4.62; pKd (LIN7C, Q9NUP9): below the threshold; pKd (DLG1_3, Q12959): 4.06
